Results on 1 molecule are retold here after US20140341937A1 (US Dept. of Health and Human Services, published 2014).

For one assay, the target named is T1, CCR8 (human, UniProt P51685 1-355).
T1 construct: whole, on cells; also called human CCR8; HEK/CCR8
The experiment in a line: flow cytometry on receptor-expressing cells.

Another assay has as its target T2, CCR4 (human, UniProt P51679 1-360).
T2 construct: whole, on cells; also called human CCR4; CCR4 on CEM cells
T2 sequence (looked up): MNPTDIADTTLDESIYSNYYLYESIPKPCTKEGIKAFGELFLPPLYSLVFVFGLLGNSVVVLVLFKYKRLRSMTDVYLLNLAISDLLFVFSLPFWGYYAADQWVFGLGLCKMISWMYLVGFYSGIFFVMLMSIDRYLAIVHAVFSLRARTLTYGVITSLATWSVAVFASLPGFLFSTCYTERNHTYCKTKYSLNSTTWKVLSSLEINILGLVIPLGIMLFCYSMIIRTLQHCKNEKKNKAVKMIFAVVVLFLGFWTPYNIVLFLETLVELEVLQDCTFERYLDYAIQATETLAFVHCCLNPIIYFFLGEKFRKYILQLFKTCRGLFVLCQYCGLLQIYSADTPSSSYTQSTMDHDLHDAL
The assay can be described thus: flow cytometry on CEM cells, anti-EDN antibody detection.

T1 sequence (P51685 whole entry): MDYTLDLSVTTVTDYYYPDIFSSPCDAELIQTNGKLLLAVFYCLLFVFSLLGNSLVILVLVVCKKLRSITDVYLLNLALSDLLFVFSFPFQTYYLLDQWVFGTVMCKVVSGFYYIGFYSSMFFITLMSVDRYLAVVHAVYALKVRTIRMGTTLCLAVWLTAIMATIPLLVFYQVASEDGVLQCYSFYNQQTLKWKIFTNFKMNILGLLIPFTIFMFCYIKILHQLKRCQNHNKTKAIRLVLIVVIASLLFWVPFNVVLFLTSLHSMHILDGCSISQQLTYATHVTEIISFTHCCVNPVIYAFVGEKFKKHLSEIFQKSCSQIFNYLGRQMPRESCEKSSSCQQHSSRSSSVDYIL

B1: eosinophil-derived neurotoxin (EDN) (enzyme, human, UniProt P10153 28-161, looked up)
chain: KPPQFTWAQWFETQHINMTSQQCTNAMQVINNYQRRCKNQNTFLLTTFANVVNVCGNPNMTCPSNKTRKNCHHSGSQVPLIHCNLTTPSPQNISNCRYAQTPANMFYIVACDNRDQRRDPPQYPVVPVHLDRII
notes: Unfused control protein; also called EDN alone; toxin alone
Turning to B1, the binding result in the assay with CCR8 was “no binding”; in the assay with CCR4, “no binding (tested: 50 µg/ml)”.
